Results: the supplement of paper PMC9112550, “Optimization of the antimicrobial peptide Bac7 by deep mutational scanning” (BMC Biology, 2022)

What follows are sequences tested on Escherichia coli TOP10 (assay: shrunken log2 fold change of peptide-encoding DNA abundance (4.5 h post-induction vs induction); higher = less antimicrobial activity (less host growth inhibition)). Settings: time post-induction: 4.5 h; library: site-saturation at positions 5, 18, 19, 20.
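Note: peptides expressed intracellularly from a pBAD plasmid library in pooled LB shake-flask culture, induced with 0.3% L-arabinose, DNA abundance read by NGS, three biological replicates, DESeq2 with apeglm shrinkage.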

Sequence	shrunken log2 fold change
RRIRDRPPRLPRPRPRPWCYPRP	0.155
RRIRKRPPRLPRPRPRPNNCPRP	-0.256
RRIRERPPRLPRPRPRPMVHPRP	-0.281
RRIRARPPRLPRPRPRPQFCPRP	-0.0724
RRIRPRPPRLPRPRPRPFKPPRP	-0.387
RRIRQRPPRLPRPRPRPWIGPRP	-0.013
RRIRHRPPRLPRPRPRPTRGPRP	0.0497
RRIRQRPPRLPRPRPRPNVTPRP	0.0508
RRIRMRPPRLPRPRPRPDHVPRP	-0.0107
RRIRYRPPRLPRPRPRPWVAPRP	-0.481
RRIRERPPRLPRPRPRPFKLPRP	-0.42
RRIRPRPPRLPRPRPRPYKLPRP	-0.313
RRIRHRPPRLPRPRPRPHYAPRP	-0.992
RRIRIRPPRLPRPRPRPFMMPRP	0.0298
RRIRYRPPRLPRPRPRPTLEPRP	-0.136
RRIRMRPPRLPRPRPRPKYWPRP	0.164
RRIRYRPPRLPRPRPRPTWLPRP	0.00076
RRIRYRPPRLPRPRPRPDPDPRP	-0.162
RRIRTRPPRLPRPRPRPELSPRP	-0.0448
RRIRWRPPRLPRPRPRPCHVPRP	-0.437
RRIRGRPPRLPRPRPRPRMRPRP	1.38
RRIRGRPPRLPRPRPRPFCYPRP	0.362
RRIRKRPPRLPRPRPRPATTPRP	0.407
RRIRKRPPRLPRPRPRPMPRPRP	0.276
RRIRGRPPRLPRPRPRPISQPRP	0.135

Sequence	shrunken log2 fold change
RRIRERPPRLPRPRPRPPLMPRP	0.0142
RRIRQRPPRLPRPRPRPITPPRP	-0.0347
RRIRFRPPRLPRPRPRPPLCPRP	0.282
RRIRKRPPRLPRPRPRPDQSPRP	0.0875
RRIRKRPPRLPRPRPRPSERPRP	0.317
RRIRIRPPRLPRPRPRPWFGPRP	-0.348
RRIRYRPPRLPRPRPRPSRKPRP	0.0647
RRIRFRPPRLPRPRPRPKNNPRP	-0.504
RRIRHRPPRLPRPRPRPGAKPRP	0.219
RRIRNRPPRLPRPRPRPIKTPRP	-0.0156
RRIRRRPPRLPRPRPRPAHEPRP	0.598
RRIRHRPPRLPRPRPRPDPKPRP	0.0039
RRIRRRPPRLPRPRPRPCIKPRP	-0.0974
RRIRCRPPRLPRPRPRPFPAPRP	-0.0653
RRIRVRPPRLPRPRPRPKHVPRP	-0.101
RRIRGRPPRLPRPRPRPYHNPRP	-0.267
RRIRLRPPRLPRPRPRPPLEPRP	0.752
RRIRARPPRLPRPRPRPMNIPRP	-0.583
RRIRIRPPRLPRPRPRPNEDPRP	-0.488
RRIRMRPPRLPRPRPRPYISPRP	-0.353
RRIRARPPRLPRPRPRPACTPRP	0.668
RRIRGRPPRLPRPRPRPNRKPRP	0.195
RRIRERPPRLPRPRPRPDYWPRP	-0.276
RRIRIRPPRLPRPRPRPSTIPRP	-0.361
RRIRCRPPRLPRPRPRPDAMPRP	0.0677

Sequence	shrunken log2 fold change
RRIRHRPPRLPRPRPRPYPSPRP	-0.457
RRIRTRPPRLPRPRPRPGENPRP	0.182
RRIRLRPPRLPRPRPRPLHDPRP	-0.149
RRIRVRPPRLPRPRPRPFTAPRP	-0.317
RRIRERPPRLPRPRPRPFAKPRP	-0.386
RRIRGRPPRLPRPRPRPNAWPRP	0.728
RRIRHRPPRLPRPRPRPHYVPRP	-0.057
RRIRGRPPRLPRPRPRPWRDPRP	0.0475
RRIRARPPRLPRPRPRPQVYPRP	-0.174
RRIRNRPPRLPRPRPRPLNYPRP	-0.29
RRIRDRPPRLPRPRPRPWIHPRP	-0.0487
RRIRERPPRLPRPRPRPPVPPRP	0.45
RRIRCRPPRLPRPRPRPFPEPRP	-0.312
RRIRIRPPRLPRPRPRPMPDPRP	0.0702
RRIRCRPPRLPRPRPRPNSSPRP	-0.366
RRIRDRPPRLPRPRPRPCDQPRP	0.0112
RRIRGRPPRLPRPRPRPVAKPRP	0.961
RRIRGRPPRLPRPRPRPTWVPRP	0.493
RRIRPRPPRLPRPRPRPCTVPRP	0.0392
RRIRSRPPRLPRPRPRPPYYPRP	-0.174
RRIRLRPPRLPRPRPRPSQHPRP	-0.169
RRIRCRPPRLPRPRPRPACCPRP	0.306
RRIRHRPPRLPRPRPRPVHQPRP	0.0507
RRIRDRPPRLPRPRPRPEKVPRP	-0.00893
RRIRARPPRLPRPRPRPMNAPRP	0.376

Sequence	shrunken log2 fold change
RRIRARPPRLPRPRPRPEVYPRP	-0.00104
RRIRGRPPRLPRPRPRPHPFPRP	-0.0384
RRIRVRPPRLPRPRPRPTWVPRP	0.228
RRIRTRPPRLPRPRPRPHPEPRP	-0.0834
RRIRHRPPRLPRPRPRPHMAPRP	-0.0236
RRIRHRPPRLPRPRPRPMAPPRP	0.0599
RRIRCRPPRLPRPRPRPAILPRP	-0.659
RRIRMRPPRLPRPRPRPDFHPRP	-0.129
RRIRKRPPRLPRPRPRPDMPPRP	0.122
RRIRIRPPRLPRPRPRPHVCPRP	0.41
RRIRVRPPRLPRPRPRPGKAPRP	-0.00584
RRIRSRPPRLPRPRPRPCKSPRP	0.00889
RRIRWRPPRLPRPRPRPWRHPRP	-0.141
RRIRLRPPRLPRPRPRPTNWPRP	0.0175
RRIRNRPPRLPRPRPRPQIAPRP	-0.155
RRIRPRPPRLPRPRPRPLARPRP	0.388
RRIRYRPPRLPRPRPRPDNCPRP	-0.0299
RRIRMRPPRLPRPRPRPNHYPRP	-0.352
RRIRFRPPRLPRPRPRPLSRPRP	-0.102
RRIRDRPPRLPRPRPRPFCIPRP	-0.0778
RRIRHRPPRLPRPRPRPIWTPRP	-0.311
RRIRIRPPRLPRPRPRPTMFPRP	-0.763
RRIRDRPPRLPRPRPRPGTWPRP	0.475
RRIRTRPPRLPRPRPRPNIMPRP	-0.526
RRIRQRPPRLPRPRPRPYDTPRP	-0.307

Sequence	shrunken log2 fold change
RRIRWRPPRLPRPRPRPVQIPRP	0.278
RRIRDRPPRLPRPRPRPEAIPRP	0.0379
RRIRRRPPRLPRPRPRPDNMPRP	-0.259
RRIRQRPPRLPRPRPRPCDEPRP	0.0697
RRIRRRPPRLPRPRPRPQGDPRP	0.0133
RRIRKRPPRLPRPRPRPFYDPRP	0.0223
RRIRKRPPRLPRPRPRPWVYPRP	0.107
RRIRHRPPRLPRPRPRPKNCPRP	0.00397
RRIRNRPPRLPRPRPRPLVQPRP	-0.28
RRIRQRPPRLPRPRPRPCSKPRP	-0.18
RRIRDRPPRLPRPRPRPHGCPRP	-0.00865
RRIRDRPPRLPRPRPRPMYIPRP	-0.148
RRIRSRPPRLPRPRPRPWNWPRP	-0.328
RRIRNRPPRLPRPRPRPLREPRP	0.128
RRIRLRPPRLPRPRPRPEVCPRP	-0.0515
RRIRFRPPRLPRPRPRPGTKPRP	0.478
RRIRSRPPRLPRPRPRPFGYPRP	-0.179
RRIRARPPRLPRPRPRPGVYPRP	0.011
RRIRERPPRLPRPRPRPGELPRP	-0.26
RRIRGRPPRLPRPRPRPSMAPRP	0.749
RRIRKRPPRLPRPRPRPTCEPRP	0.793
RRIRHRPPRLPRPRPRPHNWPRP	-0.214
RRIRARPPRLPRPRPRPFNWPRP	0.0857
RRIRLRPPRLPRPRPRPGMIPRP	-0.419
RRIRYRPPRLPRPRPRPASDPRP	-0.348

Sequence	shrunken log2 fold change
RRIRQRPPRLPRPRPRPPITPRP	-0.0813
RRIRDRPPRLPRPRPRPKTTPRP	0.0604
RRIRWRPPRLPRPRPRPRGTPRP	0.873
RRIRQRPPRLPRPRPRPSTFPRP	-0.176
RRIRARPPRLPRPRPRPPDCPRP	0.56
RRIRQRPPRLPRPRPRPKHSPRP	-0.0171
RRIRRRPPRLPRPRPRPNLDPRP	-0.152
RRIRDRPPRLPRPRPRPTKNPRP	0.0799
RRIRCRPPRLPRPRPRPHMCPRP	0.099
RRIRTRPPRLPRPRPRPNIVPRP	-0.192
RRIRHRPPRLPRPRPRPPWPPRP	0.504
RRIRERPPRLPRPRPRPAEQPRP	-0.163
RRIRCRPPRLPRPRPRPCGCPRP	-0.0301
RRIRLRPPRLPRPRPRPSNFPRP	-0.956
RRIRFRPPRLPRPRPRPQSVPRP	-0.0251
RRIRYRPPRLPRPRPRPRSEPRP	0.0596
RRIRIRPPRLPRPRPRPWIVPRP	-0.157
RRIRIRPPRLPRPRPRPEFCPRP	-0.0252
RRIRSRPPRLPRPRPRPATYPRP	-0.429
RRIRRRPPRLPRPRPRPAEKPRP	0.225
RRIRIRPPRLPRPRPRPIIWPRP	-0.167
RRIRDRPPRLPRPRPRPTLPPRP	-0.027
RRIRLRPPRLPRPRPRPCPNPRP	0.0236
RRIRKRPPRLPRPRPRPIMKPRP	0.16
RRIRCRPPRLPRPRPRPGSYPRP	-0.525
